The record followed here is patent US20190218308A1 (INNATE PHARMA, published 2019).

In one test the target is T1, CD39 mutant 15 (human, UniProt P49961 1-510).
T1 construct: Expressed on Hek-293T cells; also called M15
T1 chain: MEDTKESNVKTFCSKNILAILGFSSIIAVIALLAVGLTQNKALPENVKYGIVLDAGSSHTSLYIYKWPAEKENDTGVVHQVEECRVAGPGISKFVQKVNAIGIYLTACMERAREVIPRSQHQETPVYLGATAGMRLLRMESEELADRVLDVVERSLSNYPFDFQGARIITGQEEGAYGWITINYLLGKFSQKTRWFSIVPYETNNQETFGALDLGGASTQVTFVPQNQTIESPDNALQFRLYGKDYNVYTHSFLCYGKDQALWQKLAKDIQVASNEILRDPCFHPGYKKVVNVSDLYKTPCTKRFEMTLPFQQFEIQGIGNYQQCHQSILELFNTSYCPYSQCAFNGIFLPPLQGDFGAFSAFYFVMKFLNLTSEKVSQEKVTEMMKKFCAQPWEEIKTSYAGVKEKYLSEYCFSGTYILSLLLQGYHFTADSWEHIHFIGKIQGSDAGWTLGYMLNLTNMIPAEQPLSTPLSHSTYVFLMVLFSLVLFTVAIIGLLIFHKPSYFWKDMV
The experiment in a line: flow cytometry, Hek-293T cells transfected with CD39 mutant 15 (panel M15), table under the panel; unstained (US) 8,98; antibody concentration not shown. On the procedure: Mutants were transfected in Hek-293T cells, as shown in the table 1, using numbering of SEQ ID NO: 2. […] Mutant 19 includes substitutions at residues R138, M139 and E142.
Mutants were transfected in Hek-293T cells, as shown in the table 1, using numbering of SEQ ID NO: 2. Dose-ranges of test antibodies (10-2.5-0.625-0.1563-0.0391-0.0098-0.0024-0.0006 μg/ml) are tested on the 20 generated mutants by flow cytometry.
In general terms: A flow cytometer gives signals particle by particle.

The target in a further test is T2, murine CD39 on CHO cells (murine, UniProt P55772 1-510).
T2 construct: whole, on cells; also called CHO-moCD39; mouse CD39
T2 sequence (looked up): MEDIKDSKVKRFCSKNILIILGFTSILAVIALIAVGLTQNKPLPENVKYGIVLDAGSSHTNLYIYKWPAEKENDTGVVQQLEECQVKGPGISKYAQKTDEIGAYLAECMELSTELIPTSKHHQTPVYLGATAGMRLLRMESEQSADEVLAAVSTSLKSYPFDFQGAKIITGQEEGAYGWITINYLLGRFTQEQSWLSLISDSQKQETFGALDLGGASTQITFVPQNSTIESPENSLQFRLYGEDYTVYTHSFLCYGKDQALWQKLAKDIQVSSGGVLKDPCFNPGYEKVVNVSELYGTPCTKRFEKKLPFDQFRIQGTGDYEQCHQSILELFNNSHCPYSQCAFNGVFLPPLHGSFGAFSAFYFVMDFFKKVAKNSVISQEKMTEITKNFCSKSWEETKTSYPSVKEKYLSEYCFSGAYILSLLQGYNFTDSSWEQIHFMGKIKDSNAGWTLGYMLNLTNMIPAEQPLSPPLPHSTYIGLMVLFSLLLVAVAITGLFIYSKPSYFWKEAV
Briefly: flow cytometry titration on CHO cells expressing murine CD39 (panel CHO-moCD39). The procedure:
(§1) Cells were incubated with various concentration of unlabeled anti-CD39 antibody from 30 μg/ml to 5×10⁻⁴ μg/ml, for 30 minutes at 4° C. After washes, cells were incubated with Goat anti-mouse H+L labeled secondary antibody for 30 min at 4° C.

Test [1] addresses T3, human CD39 (NTPDase1, ENTPD1), membrane-bound, on cells (human, UniProt P49961 1-510).
T3 construct: Expressed on CHO cells, Hek-293T cells (wild type) or endogenous on Ramos cells; also called huCD39; CHO-huCD39
T3 sequence: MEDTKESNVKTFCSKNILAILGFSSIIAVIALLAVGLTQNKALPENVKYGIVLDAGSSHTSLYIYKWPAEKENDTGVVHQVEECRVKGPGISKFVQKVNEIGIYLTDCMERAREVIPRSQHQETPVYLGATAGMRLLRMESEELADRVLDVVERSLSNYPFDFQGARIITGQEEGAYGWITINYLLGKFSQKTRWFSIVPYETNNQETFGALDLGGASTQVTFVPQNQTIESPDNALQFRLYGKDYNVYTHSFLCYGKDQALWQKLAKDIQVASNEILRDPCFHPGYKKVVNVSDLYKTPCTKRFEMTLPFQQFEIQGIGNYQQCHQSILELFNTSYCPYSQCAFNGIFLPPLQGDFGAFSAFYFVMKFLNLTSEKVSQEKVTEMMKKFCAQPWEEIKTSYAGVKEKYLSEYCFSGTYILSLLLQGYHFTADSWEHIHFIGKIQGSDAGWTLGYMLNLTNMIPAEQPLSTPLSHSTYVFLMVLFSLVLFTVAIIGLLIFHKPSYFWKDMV
Briefly: flow cytometry on Ramos lymphoma cells, first set of experiments. On the procedure:
as §1

Test [2] addresses T4, Human CD39-L3, also known as NTPDase3 or ENTPD3 (human, UniProt O75355 44-485, limits assumed).
T4 construct: Recombinant protein coated in ELISA
T4 sequence: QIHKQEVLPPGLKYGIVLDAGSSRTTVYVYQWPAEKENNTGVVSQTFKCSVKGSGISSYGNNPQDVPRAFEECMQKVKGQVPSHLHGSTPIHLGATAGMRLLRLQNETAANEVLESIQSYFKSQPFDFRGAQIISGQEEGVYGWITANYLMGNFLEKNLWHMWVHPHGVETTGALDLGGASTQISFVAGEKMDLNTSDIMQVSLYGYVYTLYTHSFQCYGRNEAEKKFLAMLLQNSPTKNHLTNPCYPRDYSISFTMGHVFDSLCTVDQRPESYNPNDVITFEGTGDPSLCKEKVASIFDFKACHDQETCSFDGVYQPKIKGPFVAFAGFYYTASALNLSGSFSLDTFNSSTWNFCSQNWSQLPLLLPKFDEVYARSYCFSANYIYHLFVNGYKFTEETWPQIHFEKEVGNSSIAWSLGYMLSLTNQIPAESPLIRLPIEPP
Briefly: ELISA on coated recombinant human CD39-L3 (panel huCD39 L3). The procedure: Wells were washed in TBS Tween 20, and further saturated 2H at RT in TBS Blocking buffer. Dose range concentration of primary antibody was incubated in TBS blocking buffer for 2 h at RT. Wells were washed in TBS Tween 20. […] Optical density was measured on Enspire™ at OD=450.
(In general: ELISA stands for enzyme-linked immunosorbent assay.)

Test [3] has as its target T3, human CD39 (NTPDase1, ENTPD1), …. The experiment in a line: flow cytometry titration on CHO cells expressing human CD39 (panel CHO-huCD39). The procedure:
as §1

B1: antibody I-394 (antibody, human IgG1, kappa, V domains shown)
VH: EVQLQQSGPELVKPGASVKMSCKASGYTFTDYNMHWVKQSHGRTLEWIGYIVPLNGGSTFNQKFKGRATLTVNTSSRTAYMELRSLTSEDSAAYYCARGGTRFAYWGQGTLVTVSA
VL: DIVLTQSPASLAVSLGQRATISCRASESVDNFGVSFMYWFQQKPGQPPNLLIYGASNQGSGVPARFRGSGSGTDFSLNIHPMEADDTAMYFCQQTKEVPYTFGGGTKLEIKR
The term EC50 denotes the midpoint of the concentration-response curve. Higher therefore signals a less potent agent. A word on the EC50 (read off the curve): it is the concentration that produces a half-maximal response. For the molecule B1, the “Median : Comp-Alexa Fluor 647-A” value with CD39 mutant 15 turned out to be 6360. The binding result was “no binding (tested: about 30 µg/ml)” with murine CD39 on CHO cells and “no binding (tested: about 50 µg/ml)” in test [2]. The EC50 in test [1] is 0.16 µg/mL. Moreover, in test [3], the “EC50 (read off the curve)” value is roughly 0.2 µg/mL.
